Experimental findings from US20130130985A1 (published 2013) are described below.

The target of assay [1] is T1, human oxytocin receptor (human, UniProt P30559 1-389).
T1 sequence (looked up): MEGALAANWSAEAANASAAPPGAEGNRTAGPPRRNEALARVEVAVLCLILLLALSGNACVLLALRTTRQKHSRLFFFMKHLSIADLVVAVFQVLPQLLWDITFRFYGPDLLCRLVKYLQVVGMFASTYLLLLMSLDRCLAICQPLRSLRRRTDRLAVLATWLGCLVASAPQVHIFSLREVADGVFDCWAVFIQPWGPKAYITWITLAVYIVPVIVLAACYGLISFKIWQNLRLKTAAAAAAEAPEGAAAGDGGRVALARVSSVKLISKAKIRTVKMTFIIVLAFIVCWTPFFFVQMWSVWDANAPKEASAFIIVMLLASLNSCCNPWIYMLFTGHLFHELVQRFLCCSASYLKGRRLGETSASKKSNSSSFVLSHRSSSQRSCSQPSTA
Nature of the assay: cell-based or functional assay.

Assay [2] deals with T2, human vasopressin V1b receptor (human, UniProt P47901 1-424).
T2 sequence (looked up): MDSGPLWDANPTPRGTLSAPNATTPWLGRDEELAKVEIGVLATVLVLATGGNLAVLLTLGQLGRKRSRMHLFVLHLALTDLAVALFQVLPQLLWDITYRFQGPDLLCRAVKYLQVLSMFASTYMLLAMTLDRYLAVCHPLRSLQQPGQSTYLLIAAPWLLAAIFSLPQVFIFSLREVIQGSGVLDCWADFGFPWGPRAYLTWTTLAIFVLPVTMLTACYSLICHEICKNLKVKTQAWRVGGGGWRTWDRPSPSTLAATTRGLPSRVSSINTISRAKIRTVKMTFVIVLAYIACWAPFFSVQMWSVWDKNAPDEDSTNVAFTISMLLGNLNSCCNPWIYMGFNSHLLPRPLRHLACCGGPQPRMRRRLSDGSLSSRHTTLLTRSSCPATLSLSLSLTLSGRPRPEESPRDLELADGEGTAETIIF
Nature of the assay: cell-based or functional assay.

In assay [3] the target is T3, human vasopressin V1a receptor (human, UniProt P37288 1-418). Nature of the assay: cell-based or functional assay.
T3 sequence (P37288 whole entry): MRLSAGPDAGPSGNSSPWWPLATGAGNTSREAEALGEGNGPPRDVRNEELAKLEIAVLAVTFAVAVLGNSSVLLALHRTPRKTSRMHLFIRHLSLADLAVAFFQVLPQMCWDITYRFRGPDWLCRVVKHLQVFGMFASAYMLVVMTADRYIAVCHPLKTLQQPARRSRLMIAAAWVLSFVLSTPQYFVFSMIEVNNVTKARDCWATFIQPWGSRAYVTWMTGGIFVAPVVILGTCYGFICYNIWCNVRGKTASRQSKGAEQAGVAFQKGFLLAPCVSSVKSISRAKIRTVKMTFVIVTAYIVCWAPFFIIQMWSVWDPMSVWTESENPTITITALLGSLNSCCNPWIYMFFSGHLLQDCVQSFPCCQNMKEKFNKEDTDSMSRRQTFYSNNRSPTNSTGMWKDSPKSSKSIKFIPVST
For assay [4], the target named is T1, human oxytocin receptor. Nature of the assay: cell-based or functional assay. This is another data set of the same source.
The target in assay [5] is T3, human vasopressin V1a receptor. Nature of the assay: cell-based or functional assay. This is another data set of the same source.
Assay [6] concerns the target T1, human oxytocin receptor. Nature of the assay: radioligand displacement (3H-OT), SPA beads, COS-1 membranes. A general note: Loss of bound radioactivity is the signal in a displacement assay; it reports binding, not function.
The target of assay [7] is human vasopressin V2 receptor (human, UniProt P30518 1-371). The assay is described as follows: cell-based or functional assay.
In assay [8] the target is T2, human vasopressin V1b receptor. Nature of the assay: cell-based or functional assay. This is another data set of the same source.

Bridges are numbered along the chain shown (N, C = ends). Where no end group is shown, it is not given here. [ ]: non-standard residue; d: D form. Sec = N[C@@H](C[SeH])C(=O)O

Broadly, the IC50 is the concentration needed to halve the response being measured. A high value points to a need for much substance.

Turning to [Sec]YIQNCPLG-NH2 (bridge 1-6 via selenosulfide) [[C1U]-OT], the results for the “Emax, FLIPR calcium assay” value in assay [1], in assay [2] and in assay [3] were 85%, 82% and 90%, respectively. Moreover, the “Emax, IP-One HTRF assay” value worked out at 84% in assay [4] and 96% in assay [5].
CYIQNCPLG-OH (disulfide 1-6) [[S-S]-OT-OH]: in assay [5], the “Emax, IP-One HTRF assay” value was 77%.
As for CYIQNCPLX (C-terminal amide; Cys1 and Cys6 form the cyclic part (disulfide)) [Oxytocin], the “Emax, FLIPR calcium assay” value in assay [3] amounted to 71%. For the same molecule, the “Emax, IP-One HTRF assay” value in assay [5] stood at 79%.

B1: [C1,6U]-OT-OH (peptide)
peptide: XYIQNXPLG
modifications: L-selenocysteine at positions 1 and 6, diselenide bridge; free C-terminal carboxylic acid
notes: also called [Se-Se]-OT-OH
For B1, the “Emax, FLIPR calcium assay” value in assay [1] was determined as 38%. The “EC50, FLIPR calcium assay” value in assay [3] is > 100000 nM. The same molecule showed an IC50 in assay [6] of 1280 nM. Also, in assay [7], the “EC50, cAMP accumulation assay” value was determined as 495 nM and the “Emax, cAMP accumulation assay” value turned out to be 114%. Also, in assay [4], the “Emax, IP-One HTRF assay” value was determined as 60%. The “EC50, IP-One HTRF assay” value in assay [5] is > 100000 nM.

B2: d[C1,6U]-OT-OH (peptide)
peptide: XYIQNXPLG
modifications: by its name: desaminoselenocysteine (3-selenopropanoic acid) at position 1, L-selenocysteine at position 6, diselenide bridge; free C-terminal carboxylic acid; structure is not given
Take B2: the “Emax, FLIPR calcium assay” value was 49% in assay [1] and 58% in assay [2]. The “EC50, FLIPR calcium assay” value in assay [3] is > 100000 nM. Moreover, the “Emax, cAMP accumulation assay” value in assay [7] was determined as 135%. The “Emax, IP-One HTRF assay” value worked out at 71% in assay [4] and 63% in assay [8].
Turning to CYIQN[Sec]PLG-NH2 (bridge 1-6; also: selenosulfide bond) [[C6U]-OT], the “Emax, FLIPR calcium assay” value in assay [1] is 82%; in assay [2], 73%; in assay [3], 104%. The “Emax, IP-One HTRF assay” value in assay [4] came out at 55%; in assay [5] it was 67%.
